Laboratory results: patent publication US7018812 (DUKE UNIVERSITY, dated 2006)
Bridges are numbered along the chain shown (N, C = ends). Where no end group is shown, it is not given here.

T1: V2R-β2AR chimera (human)
T1 construct: Whole receptor on HEK-293 cells; also called V2-β2AR; V2R-p2AR
T1 chain: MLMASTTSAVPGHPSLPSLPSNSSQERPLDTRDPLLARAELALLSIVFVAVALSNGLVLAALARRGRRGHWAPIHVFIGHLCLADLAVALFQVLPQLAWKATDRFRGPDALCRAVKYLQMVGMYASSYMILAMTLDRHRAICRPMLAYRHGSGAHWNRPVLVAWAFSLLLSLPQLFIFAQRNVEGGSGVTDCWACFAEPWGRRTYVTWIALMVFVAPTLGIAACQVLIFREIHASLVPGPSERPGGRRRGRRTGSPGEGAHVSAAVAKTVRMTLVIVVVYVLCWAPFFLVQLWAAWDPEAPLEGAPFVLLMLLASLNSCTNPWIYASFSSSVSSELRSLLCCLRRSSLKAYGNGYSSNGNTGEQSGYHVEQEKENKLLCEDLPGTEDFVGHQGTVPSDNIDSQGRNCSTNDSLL


Experiments:
[1] = biological target: wild-type V2R receptor (vasopressin V2 receptor), HA-tagged (human) (UniProt P30518); assay: cell-based or functional assay
[2] = biological target: β2AR-V2R chimera (Homo sapiens (Human)) (UniProt P07550); assay: cell-based or functional assay
[3] = biological target: wild-type β2AR receptor (β2-adrenergic receptor), HA-tagged (Homo sapiens (Human)) (UniProt P07550); assay: cell-based or functional assay
V2R-β2AR chimera [4] = biological target: T1, V2R-β2AR chimera; assay: cell-based or functional assay
V2R-β2AR chimera [5] = biological target: T1, V2R-β2AR chimera; assay: [3H]AVP binding to membrane proteins of transfected HEK-293 cells; affinity not given
Experimental: Membrane proteins (10 μg) from transfected HEK-293 cells expressing the V2R and V2R-β_2AR chimera were incubated in PBS containing 2% BSA at room temperature with increasing concentrations of [^3H] […] Binding was terminated by rapid filtration and consecutive washes with ice-cold wash buffer ([…], 50 mM Tris-HCl, pH=7.2).

[6] = scale: % of Vmax measured under Naive conditions

internalized receptor recycled back to the plasma membrane 60 min after agonist removal (flow cytometry) [1] | reduction in receptor phosphorylation 60 min after agonist removal (32P, immunoprecipitation) [1] | change in receptor phosphorylation 60 min after agonist removal (32P, immunoprecipitation) [2] | internalized receptor recycled back to the plasma membrane 60 min after agonist removal (flow cytometry) [2] | internalized receptor recycled back to the plasma membrane 60 min after agonist removal (flow cytometry) [3] | reduction in receptor phosphorylation 60 min after agonist removal (32P, immunoprecipitation) [3] | internalized receptor recycled back to the plasma membrane 60 min after agonist removal (flow cytometry) (V2R-β2AR chimera [4]) | reduction in receptor phosphorylation 60 min after agonist removal (32P, immunoprecipitation) (V2R-β2AR chimera [4]) | binding result (V2R-β2AR chimera [5]) | Molecule | impairment of recovery of Vmax of adenylyl cyclase activity one hour after agonist removal (resensitization) [1] | impairment of recovery of Vmax of adenylyl cyclase activity one hour after agonist removal (resensitization) [2] | recovery of Vmax of adenylyl cyclase activity one hour after agonist removal (resensitization) [3, 6] | recovery of Vmax of adenylyl cyclase activity one hour after agonist removal (resensitization) (V2R-β2AR chimera [4]; [6])
23% | 3 % decrease | 12 % increase | 11% | 65% | 48 % reduction | 89% | 67 % reduction | – | β-arrestin | 54% | 66% | 100 | 102
– | – | – | – | – | – | – | – | binds | CYFQNCPRG-NH2 (peptide, UniProt P01185 20-28, looked up, disulfide 1-6 (inferred); ends not checked; also: tritium label ([3H]AVP), place not given here, mature; only the hormone peptide stood in the assay; also called AVP; [3H]AVP) [arginine vasopressin] | – | – | – | –
